Measured values from article PMC9482650, “Quantitative fragmentomics allow affinity mapping of interactomes” (Nature Communications, 2022).

Biological target: T1, SNTB2, Q13425
T1 sequence (Q13425 110-208, limits assumed, looked up): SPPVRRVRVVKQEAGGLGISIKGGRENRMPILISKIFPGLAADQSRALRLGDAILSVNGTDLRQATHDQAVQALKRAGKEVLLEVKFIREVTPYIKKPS
Test: holdup assay
Settings: plain residues with an end cap or a label only (N-terminal biotin on a linker: (peg)3)

YDEPTTTTSVPL [SARS-Cov2-3a, P0DTC3]
pKd: below the threshold
